± gives the standard deviation of the averaged measurements.
Test system: Saccharomyces cerevisiae
Experiment: protein stability index of tFT-peptide fusion (C-terminal peptide) (PSI (0-1 scale)); higher = more stable (slower turnover)
Details: genetic background: wild type; temperature: 30 C
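Further: PSI is a weighted mean of sequencing reads over stability bins, variants kept only with over 10 reads, mCherry proximal and sfGFP distal, peptide attached via GGGS linker.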

In order of falling protein stability index:
1. NEQPSKLLAKEC  0.866 ± 0.13
2. MNRTDPSRDEKP  0.804 ± 0.094
3. MQLPSHFEAWTS  0.781 ± 0.03
4. LWSYFLGLHPSD  0.773 ± 0.038
5. NFRTHRHLVARS  0.762 ± 0.019
6. MVVGWGGVEPVG  0.758 ± 0.048
7. LVHRGRRGSNIE  0.7537 ± 0.0011
8. MNNYWKNSTKIK  0.737 ± 0.025
9. NKRCRNITIQRA  0.73379 ± 0.00047
10. MVTWSDRVIKSW  0.733 ± 0.023
11. LWGGGGAGYWVG  0.732 ± 0.035
12. LYKSEGVYTGFW  0.729 ± 0.12
13. LWCPLLTSFPSY  0.726 ± 0.078
14. MRRSSKPRLSLT  0.725 ± 0.049
15. MIRVRGRQKIEG  0.724 ± 0.13
16. MKTNFLDVKILM  0.7186 ± 0.0059
17. MVRRDGMTVSLG  0.719 ± 0.028
18. LVGPPDPAHAVH  0.718 ± 0.031
19. LVSACIRFPPSH  0.716 ± 0.079
20. LWFWAVECGLGG  0.713 ± 0.32
21. NIAGHLHQPVQM  0.712 ± 0.029
22. MGAVGGLCGMWA  0.711 ± 0.029
23. MNSDQSGQGLTV  0.711 ± 0.011
24. MSRPSLARLPAS  0.711 ± 0.011
25. LVVCWGCGLGVL  0.71 ± 0.033
26. MAARGTEQGTMP  0.71 ± 0.061
27. NGRNKKRKCLQT  0.706 ± 0.086
28. LVSLGLHAGKRI  0.70514 ± 0.0004
29. LVRNGLCCTSRQ  0.704 ± 0.029
30. LVSFLFAPLPLS  0.704 ± 0.038
31. MAEGRARLWGPS  0.701 ± 0.024
32. MTESLIGCLSGD  0.7 ± 0.0074
33. LYPTISCSARDG  0.699 ± 0.013
34. MGFRSVRGWVSL  0.699 ± 0.093
35. NKIRIIQVNLNR  0.699 ± 0.17
36. LVRGKGGRGIEG  0.698 ± 0.074
37. LVRMCLFNMHFS  0.698 ± 0.018
38. NKKKKETKNAQQ  0.698 ± 0.013
39. NALGRPSAFILT  0.695 ± 0.057
40. NDRLDRRDWWEG  0.695 ± 0.022
41. LYLKKIQQGIIK  0.69 ± 0.039
42. LVVSPPPLPFPS  0.689 ± 0.013
43. NGTGGASSLAFG  0.689 ± 0.052
44. MARIASAQTSLT  0.688 ± 0.016
45. NEPNIRDRSIFS  0.688 ± 0.015
46. MGMSAGCGGWSG  0.6867 ± 0.0055
47. MPKVIIGMSVTK  0.687 ± 0.015
48. LVRCDSSSPLPP  0.6863 ± 0.0042
49. NKKKNKKIRQEK  0.685 ± 0.017
50. NKKIEDYDKNKN  0.6835 ± 0.00098
51. LWLLVAPGPPAQ  0.682 ± 0.027
52. NKNKENMKRKTK  0.682 ± 0.039
53. NELRTFLGDRDI  0.675 ± 0.043
54. MLGLHSDTRRSR  0.673 ± 0.022
55. LVRAWRGGVGGV  0.669 ± 0.0098
56. NKNKKKIKHKRK  0.669 ± 0.051
57. MGKSLCLFTQPI  0.668 ± 0.09
58. MVGAWCAGIPGI  0.668 ± 0.0022
59. NGISQWMGIGGQ  0.667 ± 0.011
60. LWVESRFVQTFL  0.6663 ± 0.0013
61. NKEIKKIRIKKE  0.664 ± 0.076
62. MGGVEMSNRIWE  0.663 ± 0.009
63. MGACGGRVGKFG  0.662 ± 0.035
64. MGIVEGIGASSL  0.662 ± 0.036
65. LVLPTSRPRCFI  0.661 ± 0.027
66. MGCDGSMAPRSL  0.6608 ± 0.0029
67. NDNNSRSGRRIF  0.66 ± 0.019
68. MVMEGLRTLSCQ  0.6589 ± 0.0061
69. MGHKDDRGFADR  0.657 ± 0.013
70. NAVSFVKGRLVY  0.657 ± 0.028
71. MESAGVGRVVWR  0.654 ± 0.051
72. MWVCGFVGGGGG  0.654 ± 0.035
73. NKQNKEIQPKRK  0.653 ± 0.021
74. MTLSCGVGLTVG  0.6521 ± 0.0009
75. LVQVGDKRFNRL  0.651 ± 0.01
76. NKQTAEIGRGSC  0.651 ± 0.03
77. MNHHSDCLLRLW  0.648 ± 0.0084
78. NAHHSASPSHCF  0.6471 ± 0.0059
79. LWGYFRTAASFV  0.645 ± 0.095
80. NCSSNNRQSENI  0.644 ± 0.017
81. LVGTYTPRFTPC  0.643 ± 0.1
82. LVQTREKIELVS  0.643 ± 0.027
83. NGTGGVSSLAFG  0.6399 ± 0.0013
84. NGSIENIAKRKK  0.639 ± 0.077
85. MMMRKAPTARVS  0.637 ± 0.024
86. MPNQTEARRKWV  0.633 ± 0.044
87. MRPSLIKVFLTR  0.632 ± 0.04
88. NHRANKIRKCKD  0.6298 ± 0.0016
89. MICGCLWGSEGR  0.627 ± 0.11
90. LYSNVLAAVMTG  0.623 ± 0.043
91. MACCGVFISHKT  0.615 ± 0.026
92. MRIKKQNIRNDT  0.615 ± 0.063
93. MIASRVSYDMSY  0.608 ± 0.043
94. LWAQRASPPWYQ  0.606 ± 0.047
95. LYPEELQATAVY  0.5892 ± 0.00086
96. NKKKGYRKKQNH  0.567 ± 0.032
97. NIRLRRKIIINK  0.562 ± 0.088
98. NIGVKNVVLVEG  0.537 ± 0.043
99. MHATWTLRRHGH  0.523 ± 0.04
100. MTIMPSPLGVVH  0.514 ± 0.055
101. MMEQLCCRRRLF  0.496 ± 0.041

From the supplement of paper PMC10724198
